Our source for the adhesion force values is patent US20190125929A1.

For experiment [1], the target named is decellularized extracellular matrix derived from TSP2 KO mouse dermal fibroblasts (mouse). The experiment can be described thus: AFM adhesion force, vWF-conjugated 2 µm bead on decellularized ECM (n=5).
Experiment [2] has as its target decellularized extracellular matrix derived from wild-type (WT) mouse dermal fibroblasts (mouse). Described as above.

As for “Recombinant von Willebrand Factor (vWF) (Millipore), conjugated via EDC/NHS chemistry to a 2 µm carboxylated polystyrene bead on an AFM cantilever”, the adhesion force in experiment [1] was 16.5 pN; in experiment [2], 53.8 pN.
